Assay results from PMC11078644, “Nesprin-2 is a novel scaffold protein for telethonin and FHL-2 in the cardiomyocyte sarcomere” (The Journal of Biological Chemistry, 2024).

B1: HA-tagged telethonin WT, purified recombinant protein, without PKD pre-treatment [not stated] / GST-nesprin-2 SR51-53 (amino acids 6018-6354) [human] (parent)
chain 1: MATSELSCEVSEENCERREAFWAEWKDLTLSTRPEEGCSLHEEDTQRHETYHQQGQCQVLVQRSPWLMMRMGILGRGLQEYQLPYQRVLPLPIFTPAKMGATKEEREDTPIQLQELLALETALGGQCVDRQEVAEITKQLPPVVPVSKPGALRRSLSRSMSQEAQRG
chain 2: KETFAFIQQLDKNMSNLRTWLARIESELSKPVVYDVCDDQEIQKRLAEQQDLQRDIEQHSAGVESVFNICDVLLHDSDACANETECDSIQQTTRSLDRRWRNICAMSMERRMKIEETWRLWQKFLDDYSRFEDWLKSAERTAACPNSSEVLYTSAKEELKRFEAFQRQIHERLTQLELINKQYRRLARENRTDTASRLKQMVHEGNQRWDNLQRRVTAVLRRLRHFTNQREEFEGTRESILVWLTEMDLQLTNVEHFSESDADDKMRQLNGFQQEITLNTNKIDQLIVFGEQLIQKSEPLDAVLIEDELEELHRYCQEVFGRVSRFHRRLTSCTPGL

Variants of: B1
Experiment: GST pull-down, densitometry
Conditions: with GST-nesprin-2 SR51-53 (amino acids 6018-6354) [human]; without PKD pre-treatment (P-); n = 5; parent: 1; read off a plot

Row | Variant | ratio to parent
1 | chain 1 S157A S161A | 1.1
